Numbered stars: 1 amine (or outer) side, 2 acyl side, 3 side chain; on linkers, the order of the positions; unused ones are H or OH. Bridge positions count the residues as written; N and C are the ends. Square brackets hold non-standard residues; d marks the D form. * marks the point of attachment. C20 diacid = O=C(O)CCCCCCCCCCCCCCCCCCC(=O)*; γGlu = O=C(O)[C@H](CCC(=O)[*:2])N[*:1]; Hyp = O=C(O)[C@@H]1C[C@@H](O)CN1; NMeI = CC[C@H](C)[C@H](NC)C(=O)O; Aad = N[C@@H](CCCC(=O)O)C(=O)O; Sar = CNCC(=O)O
B1: Compound 38 (peptide)
peptide: {C20 diacid-γGlu}-RDGTATKATERLA[Aad]FLQRTTF[Sar]A[NMeI]LSSTEVGSNT[Hyp]-NH2
modifications: lactam 2-7
SMILES: CC[C@H](C)[C@@H](C(=O)N[C@@H](CC(C)C)C(=O)N[C@@H](CO)C(=O)N[C@@H](CO)C(=O)N[C@H](C(=O)N[C@@H](CCC(=O)O)C(=O)N[C@H](C(=O)NCC(=O)N[C@@H](CO)C(=O)N[C@@H](CC(N)=O)C(=O)N[C@H](C(=O)N1C[C@H](O)C[C@H]1C(N)=O)[C@@H](C)O)C(C)C)[C@@H](C)O)N(C)C(=O)[C@H](C)NC(=O)CN(C)C(=O)[C@H](Cc1ccccc1)NC(=O)[C@@H](NC(=O)[C@@H](NC(=O)[C@H](CCCNC(=N)N)NC(=O)[C@H](CCC(N)=O)NC(=O)[C@H](CC(C)C)NC(=O)[C@H](Cc1ccccc1)NC(=O)[C@H](CCCC(=O)O)NC(=O)[C@H](C)NC(=O)[C@H](CC(C)C)NC(=O)[C@H](CCCNC(=N)N)NC(=O)[C@H](CCC(=O)O)NC(=O)[C@@H](NC(=O)[C@H](C)NC(=O)[C@@H]1CCCCNC(=O)C[C@H](NC(=O)[C@H](CCCNC(=N)N)NC(=O)CC[C@H](NC(=O)CCCCCCCCCCCCCCCCCCC(=O)O)C(=O)O)C(=O)NCC(=O)N[C@@H]([C@@H](C)O)C(=O)N[C@@H](C)C(=O)N[C@@H]([C@@H](C)O)C(=O)N1)[C@@H](C)O)[C@@H](C)O)[C@@H](C)O
B2: Compound 37 (peptide)
peptide: {C20 diacid-γGlu}-EDGTATKATERLA[Aad]FLQRSSF[Sar]A[NMeI]LSSTEVGSNT[Hyp]-NH2
modifications: lactam 2-7
SMILES: CC[C@H](C)[C@@H](C(=O)N[C@@H](CC(C)C)C(=O)N[C@@H](CO)C(=O)N[C@@H](CO)C(=O)N[C@H](C(=O)N[C@@H](CCC(=O)O)C(=O)N[C@H](C(=O)NCC(=O)N[C@@H](CO)C(=O)N[C@@H](CC(N)=O)C(=O)N[C@H](C(=O)N1C[C@H](O)C[C@H]1C(N)=O)[C@@H](C)O)C(C)C)[C@@H](C)O)N(C)C(=O)[C@H](C)NC(=O)CN(C)C(=O)[C@H](Cc1ccccc1)NC(=O)[C@H](CO)NC(=O)[C@H](CO)NC(=O)[C@H](CCCNC(=N)N)NC(=O)[C@H](CCC(N)=O)NC(=O)[C@H](CC(C)C)NC(=O)[C@H](Cc1ccccc1)NC(=O)[C@H](CCCC(=O)O)NC(=O)[C@H](C)NC(=O)[C@H](CC(C)C)NC(=O)[C@H](CCCNC(=N)N)NC(=O)[C@H](CCC(=O)O)NC(=O)[C@@H](NC(=O)[C@H](C)NC(=O)[C@@H]1CCCCNC(=O)C[C@H](NC(=O)[C@H](CCC(=O)O)NC(=O)CC[C@H](NC(=O)CCCCCCCCCCCCCCCCCCC(=O)O)C(=O)O)C(=O)NCC(=O)N[C@@H]([C@@H](C)O)C(=O)N[C@@H](C)C(=O)N[C@@H]([C@@H](C)O)C(=O)N1)[C@@H](C)O
B3: Compound 40 (peptide)
peptide: {C20 diacid-γGlu}-RDGTATKATQRLA[Aad]FLQRSSF[Sar]A[NMeI]LSSTEVGSNT[Hyp]-NH2
modifications: lactam 2-7
SMILES: CC[C@H](C)[C@@H](C(=O)N[C@@H](CC(C)C)C(=O)N[C@@H](CO)C(=O)N[C@@H](CO)C(=O)N[C@H](C(=O)N[C@@H](CCC(=O)O)C(=O)N[C@H](C(=O)NCC(=O)N[C@@H](CO)C(=O)N[C@@H](CC(N)=O)C(=O)N[C@H](C(=O)N1C[C@H](O)C[C@H]1C(N)=O)[C@@H](C)O)C(C)C)[C@@H](C)O)N(C)C(=O)[C@H](C)NC(=O)CN(C)C(=O)[C@H](Cc1ccccc1)NC(=O)[C@H](CO)NC(=O)[C@H](CO)NC(=O)[C@H](CCCNC(=N)N)NC(=O)[C@H](CCC(N)=O)NC(=O)[C@H](CC(C)C)NC(=O)[C@H](Cc1ccccc1)NC(=O)[C@H](CCCC(=O)O)NC(=O)[C@H](C)NC(=O)[C@H](CC(C)C)NC(=O)[C@H](CCCNC(=N)N)NC(=O)[C@H](CCC(N)=O)NC(=O)[C@@H](NC(=O)[C@H](C)NC(=O)[C@@H]1CCCCNC(=O)C[C@H](NC(=O)[C@H](CCCNC(=N)N)NC(=O)CC[C@H](NC(=O)CCCCCCCCCCCCCCCCCCC(=O)O)C(=O)O)C(=O)NCC(=O)N[C@@H]([C@@H](C)O)C(=O)N[C@@H](C)C(=O)N[C@@H]([C@@H](C)O)C(=O)N1)[C@@H](C)O
B4: Compound 36 (peptide)
peptide: {C20 diacid-γGlu}-RDGTATKATERLA[Aad]FLQRSSF[Sar]A[NMeI]LSSTETGSNT[Hyp]-NH2
modifications: lactam 2-7
SMILES: CC[C@H](C)[C@@H](C(=O)N[C@@H](CC(C)C)C(=O)N[C@@H](CO)C(=O)N[C@@H](CO)C(=O)N[C@H](C(=O)N[C@@H](CCC(=O)O)C(=O)N[C@H](C(=O)NCC(=O)N[C@@H](CO)C(=O)N[C@@H](CC(N)=O)C(=O)N[C@H](C(=O)N1C[C@H](O)C[C@H]1C(N)=O)[C@@H](C)O)[C@@H](C)O)[C@@H](C)O)N(C)C(=O)[C@H](C)NC(=O)CN(C)C(=O)[C@H](Cc1ccccc1)NC(=O)[C@H](CO)NC(=O)[C@H](CO)NC(=O)[C@H](CCCNC(=N)N)NC(=O)[C@H](CCC(N)=O)NC(=O)[C@H](CC(C)C)NC(=O)[C@H](Cc1ccccc1)NC(=O)[C@H](CCCC(=O)O)NC(=O)[C@H](C)NC(=O)[C@H](CC(C)C)NC(=O)[C@H](CCCNC(=N)N)NC(=O)[C@H](CCC(=O)O)NC(=O)[C@@H](NC(=O)[C@H](C)NC(=O)[C@@H]1CCCCNC(=O)C[C@H](NC(=O)[C@H](CCCNC(=N)N)NC(=O)CC[C@H](NC(=O)CCCCCCCCCCCCCCCCCCC(=O)O)C(=O)O)C(=O)NCC(=O)N[C@@H]([C@@H](C)O)C(=O)N[C@@H](C)C(=O)N[C@@H]([C@@H](C)O)C(=O)N1)[C@@H](C)O
B5: Compound 39 (peptide)
peptide: {C20 diacid-γGlu}-KDGTATKATQRLA[Aad]FLQRSSF[Sar]A[NMeI]LSSTEVGSNT[Hyp]-NH2
modifications: lactam 2-7
SMILES: CC[C@H](C)[C@@H](C(=O)N[C@@H](CC(C)C)C(=O)N[C@@H](CO)C(=O)N[C@@H](CO)C(=O)N[C@H](C(=O)N[C@@H](CCC(=O)O)C(=O)N[C@H](C(=O)NCC(=O)N[C@@H](CO)C(=O)N[C@@H](CC(N)=O)C(=O)N[C@H](C(=O)N1C[C@H](O)C[C@H]1C(N)=O)[C@@H](C)O)C(C)C)[C@@H](C)O)N(C)C(=O)[C@H](C)NC(=O)CN(C)C(=O)[C@H](Cc1ccccc1)NC(=O)[C@H](CO)NC(=O)[C@H](CO)NC(=O)[C@H](CCCNC(=N)N)NC(=O)[C@H](CCC(N)=O)NC(=O)[C@H](CC(C)C)NC(=O)[C@H](Cc1ccccc1)NC(=O)[C@H](CCCC(=O)O)NC(=O)[C@H](C)NC(=O)[C@H](CC(C)C)NC(=O)[C@H](CCCNC(=N)N)NC(=O)[C@H](CCC(N)=O)NC(=O)[C@@H](NC(=O)[C@H](C)NC(=O)[C@@H]1CCCCNC(=O)C[C@H](NC(=O)[C@H](CCCCN)NC(=O)CC[C@H](NC(=O)CCCCCCCCCCCCCCCCCCC(=O)O)C(=O)O)C(=O)NCC(=O)N[C@@H]([C@@H](C)O)C(=O)N[C@@H](C)C(=O)N[C@@H]([C@@H](C)O)C(=O)N1)[C@@H](C)O

Each binder was assayed against recombinant human amylin 3 receptor (hAMYR3) (human), P30988 (assay: cell-based or functional assay).
recombinant human amylin 3 receptor (hAMYR3) (human), P30988, sequence (P30988 25-474, chain 1 of 2): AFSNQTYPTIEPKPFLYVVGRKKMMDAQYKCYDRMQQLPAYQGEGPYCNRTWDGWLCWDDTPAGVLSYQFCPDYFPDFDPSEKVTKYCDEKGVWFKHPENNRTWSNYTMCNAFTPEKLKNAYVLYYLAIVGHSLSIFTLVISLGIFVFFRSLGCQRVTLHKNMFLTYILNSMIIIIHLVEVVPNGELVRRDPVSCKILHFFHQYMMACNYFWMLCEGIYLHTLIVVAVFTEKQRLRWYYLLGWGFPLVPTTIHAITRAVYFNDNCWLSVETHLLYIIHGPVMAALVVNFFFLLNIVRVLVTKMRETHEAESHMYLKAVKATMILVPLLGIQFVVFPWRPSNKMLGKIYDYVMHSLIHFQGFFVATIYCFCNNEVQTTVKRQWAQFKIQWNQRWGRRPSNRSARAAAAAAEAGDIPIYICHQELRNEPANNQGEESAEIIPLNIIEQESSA
recombinant human amylin 3 receptor (hAMYR3) (human), P30988, sequence (O60896 24-148, chain 2 of 2, further chain): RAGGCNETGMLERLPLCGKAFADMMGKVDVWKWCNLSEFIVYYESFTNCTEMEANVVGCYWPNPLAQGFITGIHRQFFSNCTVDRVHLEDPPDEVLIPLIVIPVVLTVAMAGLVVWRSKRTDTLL

Point of comparison: B2, hAMYR3 EC50 [nM] (cAMP formation, 1321N1 cells expressing hAMYR3) 0.031 nM. Against it:
- B1 — 1.9-fold higher, 0.06 nM
- B3 — 3.9-fold lower, 0.008 nM
- B4 — 4.4-fold lower, 0.007 nM
- B5 — within 1.5-fold, 0.024 nM

What follows are binders tested against recombinant human calcitonin receptor (hCT-R) (human), P30988 (assay: cell-based or functional assay).
recombinant human calcitonin receptor (hCT-R) (human), P30988, sequence (P30988 25-474): as the sequence (P30988 25-474, chain 1 of 2) above

Point of comparison: B4, hCT-R EC50 [nM] (cAMP formation, 1321N1 cells expressing hCT-R) 0.026 nM. Against it:
- B1 — 4.4-fold higher, 0.114 nM
- B2 — 4.5-fold higher, 0.116 nM
- B3 — within 1.5-fold, 0.028 nM
- B5 — 3.6-fold higher, 0.094 nM

— patent publication US20180071366A1
